# Test results published in paper PMC9405023, “NRF2 Regulates Cystathionine Gamma-Lyase Expression and Activity in Primary Airway Epithelial Cells Infected with Respiratory Syncytial Virus”.
# T1: recombinant NRF2 (rNRF2) (UniProt Q16236 1-605)
# T1 sequence: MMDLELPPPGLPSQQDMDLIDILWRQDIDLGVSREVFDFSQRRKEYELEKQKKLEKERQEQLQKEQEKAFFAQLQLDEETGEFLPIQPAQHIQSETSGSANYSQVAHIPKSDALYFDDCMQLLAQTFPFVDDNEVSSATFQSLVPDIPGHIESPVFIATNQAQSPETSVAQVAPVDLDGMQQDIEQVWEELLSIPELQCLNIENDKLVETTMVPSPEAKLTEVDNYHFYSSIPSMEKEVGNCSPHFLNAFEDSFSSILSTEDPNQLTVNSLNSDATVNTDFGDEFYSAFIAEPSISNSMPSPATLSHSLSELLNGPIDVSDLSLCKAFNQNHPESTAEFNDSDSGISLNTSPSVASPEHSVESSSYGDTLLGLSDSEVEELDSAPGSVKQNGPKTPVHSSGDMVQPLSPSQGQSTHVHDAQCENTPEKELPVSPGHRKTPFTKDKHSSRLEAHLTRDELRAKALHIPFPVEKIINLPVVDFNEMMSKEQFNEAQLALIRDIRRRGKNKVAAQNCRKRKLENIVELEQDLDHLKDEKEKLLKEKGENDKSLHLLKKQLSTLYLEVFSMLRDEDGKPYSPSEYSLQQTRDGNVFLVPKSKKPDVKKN
# B1: -156/-120 CSE wild type (WT) (dsDNA)
# DNA 1: CGGTCGCGGTGACGTTTCAGGCAACGCCTCTGCTGT
# DNA 2: ACAGCAGAGGCGTTGCCTGAAACGTCACCGCGACCG
# Target: T1, recombinant NRF2 (rNRF2)
# Assay: EMSA; C1 and C2 complexes; 10 mM Tris-HCl pH 8.0, 50 mM KCl, 50 mM NaCl, 1 mM MgCl2, 1 mM EDTA, 5 mM DTT, 2.5% glycerol, 0.3 ug poly dI-dC, 15 fmol probe, 6-8 ug nuclear extract, 10 uL, 15 min, room temperature
# Settings: protein: recombinant; label: 32P (probe); blunt
binder,measurement,value
B1,binding result,binds
